{"source": "paper doi:10.1101/2020.07.27.223248", "about": "(bioRxiv, 2020)", "molecular_target": "the molecule itself", "assay": "cryo-EM structure", "data": [{"protein": "FljK T103C N130S, straightened flagellar filament (natural protein, C. crescentus, UniProt P18913 1-273, looked up, post-translational modifications on conserved surface threonine residues, likely O-linked glycans (positions not given)) MALNSINTNAGAMIALQNLNGTNSELTTVQQRINTGKKIASAKDNGAIWATAKNQSATAASMNAVKDSLQRGQSTIDVALAAGDTITDLLGKMKEKALAASDCSLNTASFNALKSDFDSLRDQIEKAATSAKFNGVSIADGSTTKLTFLANSDGSGFTVNAKTISLAGIGLTTTSTFTTAAAAKTMIGTIDTALQTATNKLASLGTSSVGLDTHLTFVGKLQDSLDAGVGNLVDADLAKESAKLQSLQTKQQLGVQALSIANQSSSSILSLFR", "values": [{"measurement": "binding result", "value": "binds"}]}]}
